Measurements reported in the Immune Epitope Database (IEDB).

Legend:
HLA-A*24:03 = experiment: IEDB peptide-MHC binding, purified MHC/direct/fluorescence; filed as Kd, often an IC50 or EC50 that approximates it; ≥ and ≤ were set here for values at or beyond the usual limits of such assays
HLA-A*68:02 [1] = experiment: as above; details: source organism: Zaire ebolavirus
HLA-A*02:12 [2] = experiment: as above
HLA-A*29:02 = experiment: as above
HLA-A*03:01 [3] = experiment: as above
HLA-A*02:16 = experiment: as above
HLA-A*02:11 = experiment: as above
HLA-A*02:03 = experiment: as above
HLA-A*02:19 [4] = experiment: as above
HLA-A*26:01 = experiment: IEDB peptide-MHC binding, purified MHC/competitive/fluorescence; filed as Kd, often an IC50 or EC50 that approximates it; ≥ and ≤ were set here for values at or beyond the usual limits of such assays
HLA-B*46:01 [5] = experiment: as above
HLA-B*15:17 = experiment: as above
HLA-B*39:01 [6] = experiment: as above
HLA-B*27:03 = experiment: as above
HLA-B*15:01 [7] = experiment: as above
HLA-B*57:01 [8] = experiment: as above
HLA-A*02:01 [9] = experiment: as above
HLA-A*69:01 [10] = experiment: as above
HLA-B*18:01 [11] = experiment: as above
HLA-B*51:01 [12] = experiment: as above
HLA-A*03:01 [13] = experiment: IEDB peptide-MHC binding, purified MHC/competitive/fluorescence; ≥ and ≤ were set here for values at or beyond the usual limits of such assays
HLA-A*11:01 = experiment: as above
HLA-B*51:01 [14] = experiment: IEDB peptide-MHC binding, purified MHC/direct/fluorescence; filed as Kd, often an IC50 or EC50 that approximates it; ≥ and ≤ were set here for values at or beyond the usual limits of such assays
HLA-B*53:01 = experiment: IEDB peptide-MHC binding, purified MHC/competitive/radioactivity; filed as Kd, often an IC50 or EC50 that approximates it; ≥ and ≤ were set here for values at or beyond the usual limits of such assays; details: source organism: Dengue virus 1 Brazil/97-11/1997
HLA-B*07:02 [15] = experiment: IEDB peptide-MHC binding, purified MHC/direct/fluorescence; filed as Kd, often an IC50 or EC50 that approximates it; ≥ and ≤ were set here for values at or beyond the usual limits of such assays
HLA-B*15:01 [16] = experiment: as above
HLA-A*01:01 = experiment: as above; details: source organism: Mycobacterium tuberculosis
HLA-B*44:02 = experiment: as above; details: source organism: Mycobacterium tuberculosis
HLA-B*58:01 = experiment: as above; details: source organism: Mycobacterium tuberculosis
HLA-B*46:01 [17] = experiment: as above; details: source organism: Mycobacterium tuberculosis
HLA-B*39:01 [18] = experiment: as above; details: source organism: Mycobacterium tuberculosis
HLA-A*31:01 = experiment: as above; details: source organism: Mycobacterium tuberculosis
HLA-B*57:01 [19] = experiment: as above; details: source organism: Mycobacterium tuberculosis
HLA-B*27:05 = experiment: as above; details: source organism: Mycobacterium tuberculosis
HLA-A*69:01 [20] = experiment: as above; details: source organism: Mycobacterium tuberculosis
HLA-B*48:01 = experiment: as above; details: source organism: Mycobacterium tuberculosis
HLA-B*18:01 [21] = experiment: as above; details: source organism: Mycobacterium tuberculosis
HLA-B*07:02 [22] = experiment: IEDB peptide-MHC binding, purified MHC/competitive/fluorescence; ≥ and ≤ were set here for values at or beyond the usual limits of such assays; details: source organism: Zaire ebolavirus
HLA-A*24:02 = experiment: as above; details: source organism: Zaire ebolavirus
HLA-B*15:01 [23] = experiment: as above; details: source organism: Zaire ebolavirus
HLA-A*02:01 [24] = experiment: as above; details: source organism: Zaire ebolavirus
HLA-A*68:02 [25] = experiment: IEDB peptide-MHC binding, purified MHC/competitive/fluorescence; filed as Kd, often an IC50 or EC50 that approximates it; ≥ and ≤ were set here for values at or beyond the usual limits of such assays; details: source organism: Homo sapiens
HLA-A*02:12 [26] = experiment: as above; details: source organism: Homo sapiens
HLA-A*03:01 [27] = experiment: as above; details: source organism: Homo sapiens
HLA-A*02:19 [28] = experiment: as above; details: source organism: Homo sapiens
HLA-B*40:01 = experiment: IEDB peptide-MHC binding, purified MHC/direct/fluorescence; filed as Kd, often an IC50 or EC50 that approximates it; ≥ and ≤ were set here for values at or beyond the usual limits of such assays; details: source organism: Orthohantavirus negraense
[29] = source organism: Zaire ebolavirus
[30] = source organism: Vaccinia virus WR
[31] = source organism: Yersinia pestis
[32] = source organism: Mycobacterium tuberculosis
[33] = source organism: Convict Creek 107 virus
[34] = source organism: Orthohantavirus sinnombreense
[35] = source organism: Vaccinia virus Copenhagen

AFHQLVQVI
Kd (HLA-A*24:03; source organism: Reston ebolavirus - Reston): 0.0021 µM | Kd (HLA-A*68:02 [1]): ≥ 20 µM | Kd (HLA-A*02:12 [2]; [29]): ≥ 20 µM | Kd (HLA-A*29:02; [29]): ≥ 20 µM | Kd (HLA-A*03:01 [3]; [29]): ≥ 20 µM | Kd (HLA-A*02:16; [29]): ≥ 20 µM | Kd (HLA-A*02:11; [29]): ≥ 20 µM | Kd (HLA-A*02:03; [29]): ≥ 20 µM | Kd (HLA-A*02:19 [4]; [29]): ≥ 20 µM | Kd (HLA-A*26:01; [29]): ≥ 20 µM | Kd (HLA-B*46:01 [5]; [29]): ≥ 20 µM | Kd (HLA-B*15:17; [29]): ≥ 20 µM | Kd (HLA-B*39:01 [6]; [29]): ≥ 20 µM | Kd (HLA-B*27:03; [29]): ≥ 20 µM | Kd (HLA-B*15:01 [7]; [29]): ≥ 20 µM | Kd (HLA-B*57:01 [8]; [29]): ≥ 20 µM | Kd (HLA-A*02:01 [9]; [29]): ≥ 20 µM | Kd (HLA-A*69:01 [10]; [29]): ≥ 20 µM | Kd (HLA-B*18:01 [11]; [29]): ≥ 20 µM | Kd (HLA-B*51:01 [12]; [29]): ≥ 20 µM

AVIRANNNR
IC50 (HLA-A*03:01 [13]; [30]): 5.9 µM | IC50 (HLA-A*11:01; [30]): 2.16 µM

CPTQGEATL
Kd (HLA-B*51:01 [14]; source organism: Dengue virus): ≥ 20 µM | Kd (HLA-B*53:01): 0.0199 µM

GHGFRFEVK
IC50 (HLA-A*03:01 [13]; [29]): 6.42 µM | IC50 (HLA-A*11:01; [29]): 3.17 µM

HHAYQGDYK
IC50 (HLA-A*03:01 [13]; [29]): 46 µM | IC50 (HLA-A*11:01; [29]): ≥ 70.5 µM

KGYVVSRRG
IC50 (HLA-A*03:01 [13]; [30]): ≥ 102 µM

LPLEFWQAW
Kd (HLA-B*07:02 [15]; [31]): 0.235 µM | Kd (HLA-B*15:01 [16]; source organism: Yersinia enterocolitica subsp. enterocolitica 8081): ≥ 20 µM | Kd (HLA-B*51:01 [14]; [31]): ≥ 20 µM

QQDTNSAGL
Kd (HLA-A*01:01): ≥ 20 µM | Kd (HLA-B*44:02): ≥ 20 µM | Kd (HLA-B*58:01): ≥ 20 µM | Kd (HLA-B*07:02 [15]; [32]): ≥ 20 µM | Kd (HLA-B*46:01 [17]): ≥ 20 µM | Kd (HLA-B*39:01 [18]): 0.301 µM | Kd (HLA-B*15:01 [16]; [32]): ≥ 20 µM | Kd (HLA-A*31:01): ≥ 20 µM | Kd (HLA-A*29:02; [32]): ≥ 20 µM | Kd (HLA-A*03:01 [3]; [32]): ≥ 20 µM | Kd (HLA-B*57:01 [19]): ≥ 20 µM | Kd (HLA-B*27:05): ≥ 20 µM | Kd (HLA-A*69:01 [20]): ≥ 20 µM | Kd (HLA-B*48:01): ≥ 20 µM | Kd (HLA-B*18:01 [21]): ≥ 20 µM

QSVGHMMVI
IC50 (HLA-B*07:02 [22]): 34.5 µM | IC50 (HLA-A*24:02): 3.77 µM | IC50 (HLA-B*15:01 [23]): ≥ 143 µM | IC50 (HLA-A*02:01 [24]): 4.89 µM

SLFNWLWYE
Kd (HLA-A*26:01; source organism: Homo sapiens): ≥ 20 µM | Kd (HLA-B*46:01 [5]; source organism: Homo sapiens): ≥ 20 µM | Kd (HLA-B*15:17; source organism: Homo sapiens): ≥ 20 µM | Kd (HLA-B*39:01 [6]; source organism: Homo sapiens): ≥ 20 µM | Kd (HLA-B*27:03; source organism: Homo sapiens): ≥ 20 µM | Kd (HLA-A*68:02 [25]): ≥ 20 µM | Kd (HLA-A*02:12 [26]): ≥ 20 µM | Kd (HLA-B*15:01 [7]; source organism: Homo sapiens): ≥ 20 µM | Kd (HLA-A*03:01 [27]): ≥ 20 µM | Kd (HLA-B*57:01 [8]; source organism: Homo sapiens): ≥ 20 µM | Kd (HLA-A*02:01 [9]; source organism: Homo sapiens): 0.196 µM | Kd (HLA-A*69:01 [10]; source organism: Homo sapiens): ≥ 20 µM | Kd (HLA-B*18:01 [11]; source organism: Homo sapiens): ≥ 20 µM | Kd (HLA-A*02:19 [28]): ≥ 20 µM | Kd (HLA-B*51:01 [12]; source organism: Homo sapiens): ≥ 20 µM

TEFFMSRKL
Kd (HLA-A*24:03; [33]): ≥ 20 µM | Kd (HLA-A*02:12 [2]; [33]): ≥ 20 µM | Kd (HLA-B*40:01): 0.0014 µM | Kd (HLA-A*29:02; [33]): ≥ 20 µM | Kd (HLA-A*03:01 [3]; [33]): ≥ 20 µM | Kd (HLA-A*02:16; [33]): ≥ 20 µM | Kd (HLA-A*02:11; [33]): ≥ 20 µM | Kd (HLA-A*02:03; [33]): ≥ 20 µM | Kd (HLA-A*02:19 [4]; [33]): ≥ 20 µM | Kd (HLA-A*26:01; [34]): ≥ 20 µM | Kd (HLA-B*46:01 [5]; [34]): ≥ 20 µM | Kd (HLA-B*15:17; [34]): ≥ 20 µM | Kd (HLA-B*27:03; [34]): ≥ 20 µM | Kd (HLA-B*15:01 [7]; [34]): ≥ 20 µM | Kd (HLA-B*57:01 [8]; [34]): ≥ 20 µM | Kd (HLA-A*02:01 [9]; [34]): ≥ 20 µM | Kd (HLA-B*51:01 [12]; [34]): ≥ 20 µM

TKITFALKK
IC50 (HLA-A*03:01 [13]; [35]): 39.6 µM | IC50 (HLA-A*11:01; [35]): 11.1 µM
